Reference: article doi:10.1101/2024.04.18.590116 (bioRxiv, 2024)

Biological target: T1, 6xHis-MPK3 (rice, UniProt Q10N20 1-369)
T1 sequence (looked up): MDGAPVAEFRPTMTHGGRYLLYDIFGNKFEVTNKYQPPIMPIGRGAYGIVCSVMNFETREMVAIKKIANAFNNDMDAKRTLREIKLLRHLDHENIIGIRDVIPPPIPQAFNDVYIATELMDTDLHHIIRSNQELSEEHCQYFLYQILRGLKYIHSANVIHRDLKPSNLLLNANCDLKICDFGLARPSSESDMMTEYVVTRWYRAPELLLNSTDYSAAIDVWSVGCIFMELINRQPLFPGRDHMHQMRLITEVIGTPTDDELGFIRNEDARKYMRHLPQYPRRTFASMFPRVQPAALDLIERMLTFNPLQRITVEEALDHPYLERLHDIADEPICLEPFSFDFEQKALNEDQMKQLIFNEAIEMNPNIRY
Experiment: pull-down

B1: GST-KRP3 (natural protein, rice (Oryza sativa), UniProt Q2R185 1-225, looked up)
chain: MGKYLRSSCKQQQQPSSPAAVASVAAAAVSSYSYLTLRSGRRVPAAAAAAGGSACRRRHRRGGRRGCAKNGAGSARACGARSPTSSASSGQRRRCEAVECSHGGGRAELSRSPPLGNSVVVVSGDVVSGERKSLKPNSCSREVAAEHAGEHKHNPAAAAAAGRRPPLSPPEAEIEAFFAAAELAERRRFAEKYNYDIALDRPLQGRYEWEPTVPNFDVAKDVTDM
Does B1 bind?
Result: binds
